Data taken from PMC12624140, “A conserved chronobiological complex times C. elegans development” (The EMBO Journal, 2025).

T1: biotinylated human CK1δ kinase domain (CK1δ ΔC, residues 1–317) (human, UniProt P48730 1-317, biotin on the N-terminus (Sortase A reaction of biotin-LPETGG with the N-terminal G of GAMDPEF))
T1 construct: N-terminal vector artifact left after TEV cleavage; its first G is joined to the sortase peptide; human casein kinase 1 delta, catalytic domain, residues 1-317; After the sortase reaction the N-terminus should read biotin-LPET-GAMDPEF-; also called biotinylated CK1; not shown: His-GST, N-terminal, cleaved; biotin-LPETGG sortase peptide, N-terminal, kept
T1 sequence: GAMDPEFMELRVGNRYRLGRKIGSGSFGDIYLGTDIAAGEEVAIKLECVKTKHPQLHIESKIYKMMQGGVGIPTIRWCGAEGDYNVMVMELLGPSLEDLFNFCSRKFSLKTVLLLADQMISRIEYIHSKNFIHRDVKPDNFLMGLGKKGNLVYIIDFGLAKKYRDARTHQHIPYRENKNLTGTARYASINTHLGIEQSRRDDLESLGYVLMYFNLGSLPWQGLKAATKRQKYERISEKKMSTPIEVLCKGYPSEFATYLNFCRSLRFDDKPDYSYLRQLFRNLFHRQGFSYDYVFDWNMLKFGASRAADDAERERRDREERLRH

T2: human CK1δ kinase domain (CK1δ ΔC, residues 1–317) (human, UniProt P48730 1-317)
T2 construct: N-terminal vector artifact left after TEV cleavage; human casein kinase 1 delta, catalytic domain, residues 1-317; also called CK1δ∆C; source: E. coli Rosetta (DE3), purified (Ni-NTA, TEV cleavage, GST column, SEC); not shown: His-GST, N-terminal, cleaved
T2 sequence: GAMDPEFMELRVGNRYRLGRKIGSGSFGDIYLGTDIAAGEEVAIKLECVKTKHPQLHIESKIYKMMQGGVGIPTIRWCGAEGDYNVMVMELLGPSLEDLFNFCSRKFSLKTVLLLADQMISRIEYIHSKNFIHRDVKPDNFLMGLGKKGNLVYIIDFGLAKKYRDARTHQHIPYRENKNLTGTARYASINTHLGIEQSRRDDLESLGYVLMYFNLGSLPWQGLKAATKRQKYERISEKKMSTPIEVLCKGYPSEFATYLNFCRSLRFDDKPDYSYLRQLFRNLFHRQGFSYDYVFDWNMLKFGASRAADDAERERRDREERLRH


Tests used:
[1] = target: T1, biotinylated human CK1δ kinase domain …; experiment: BLI; biotinylated CK1δ ΔC immobilised on streptavidin biosensors, LIN-42 fragments titrated; SEC buffer (50 mM Tris pH 7.5, 200 mM NaCl, 1 mM EDTA, 5% glycerol, 1 mM TCEP, 0.05% Tween-20) with 7.5 mM BSA as printed; Octet-RED96e; kinetic analysis, 2:1 heterogeneous ligand binding model, global fit; settings: both partners purified
[2] = target: T2, human CK1δ kinase domain (CK1δ ΔC, …); experiment: pull-down; magnetic streptavidin beads hold biotinylated LIN-42 CK1BD + Tail WT or mutants (5 µM), with and without CK1δ ΔC (5 µM); settings: both partners purified

Binder | Kd [1] [nM] | binding result [2]
LIN-42 CK1BD (residues 402–475) (domain or fragment, C. elegans, N-terminal vector artifact left after TEV cleavage; LIN-42, C. elegans, residues 402-475 (SYQ/CK1BD-A and LT/CK1BD-B); numbers fit the longest isoform of 598 amino acids; also called truncated fragment of LIN-42 lacking the C-terminal tail; source: E. coli Rosetta (DE3), purified (Ni-NTA, TEV cleavage, second Ni-NTA, SEC); not shown: His-NusA, N-terminal, cleaved) GAMDPEFLSYTQINCLENVHRLLKSQSRPESPAKQDEPFDEKKYPPQTPLTREALTLHTKRFEDEYKDTWCRRLKRLSDDV | 303 | –
LIN-42 CK1BD + Tail (residues 402–598) (domain or fragment, C. elegans, N-terminal vector artifact left after TEV cleavage; LIN-42, C. elegans, residues 402-598 (CK1BD and C-terminal tail); numbers fit the longest isoform of 598 amino acids; also called wild-type LIN-42 CK1BD + Tail; source: E. coli Rosetta (DE3), purified (Ni-NTA, TEV cleavage, second Ni-NTA, SEC); not shown: His-NusA, N-terminal, cleaved) GAMDPEFLSYTQINCLENVHRLLKSQSRPESPAKQDEPFDEKKYPPQTPLTREALTLHTKRFEDEYKDTWCRRLKRLSDDVPSSPPAKRTTPIHWTSSSQNHYRTMAPAPPPPPGKNYQITYTPLDDLTDQKSTNTKSDVENVAYPISGSKFSTPMRLSIDGLLPRGATSTGGASPTSGTNSPPVFPKTSSSSSLLMLRDSQN | 309 | –

Second part, the binder after the results:

Kd [1] [nM] | binding result [2] | Binder
– | binds | biotinylated LIN-42 CK1BD-∆A + Tail (residues 434–598) (domain or fragment, C. elegans, biotin on the N-terminus (Sortase A reaction of biotin-LPETGG with the N-terminal G of GAMDPEF), N-terminal vector artifact left after TEV cleavage; its first G is joined to the sortase peptide; LIN-42, C. elegans, residues 434-598: CK1BD + Tail without the SYQ/CK1BD-A motif; also called biotinylated CK1BD + Tail mutant, SYQ/CK1BD-A deleted; not shown: His-NusA, N-terminal, cleaved; biotin-LPETGG sortase peptide, N-terminal, kept) GAMDPEFDEKKYPPQTPLTREALTLHTKRFEDEYKDTWCRRLKRLSDDVPSSPPAKRTTPIHWTSSSQNHYRTMAPAPPPPPGKNYQITYTPLDDLTDQKSTNTKSDVENVAYPISGSKFSTPMRLSIDGLLPRGATSTGGASPTSGTNSPPVFPKTSSSSSLLMLRDSQN
~3000 | – | LIN-42 CK1BD-∆A + Tail (residues 434–598) (domain or fragment, C. elegans, N-terminal vector artifact left after TEV cleavage; LIN-42, C. elegans, residues 434-598: CK1BD + Tail without the SYQ/CK1BD-A motif; source: E. coli Rosetta (DE3), purified (Ni-NTA, TEV cleavage, second Ni-NTA, SEC); not shown: His-NusA, N-terminal, cleaved) GAMDPEFDEKKYPPQTPLTREALTLHTKRFEDEYKDTWCRRLKRLSDDVPSSPPAKRTTPIHWTSSSQNHYRTMAPAPPPPPGKNYQITYTPLDDLTDQKSTNTKSDVENVAYPISGSKFSTPMRLSIDGLLPRGATSTGGASPTSGTNSPPVFPKTSSSSSLLMLRDSQN
– | binds | biotinylated LIN-42 CK1BD + Tail (residues 402–598), wild type (domain or fragment, C. elegans, biotin on the N-terminus (Sortase A reaction of biotin-LPETGG with the N-terminal G of GAMDPEF), N-terminal vector artifact left after TEV cleavage; its first G is joined to the sortase peptide; LIN-42, C. elegans, residues 402-598 (CK1BD and C-terminal tail); After the sortase reaction the N-terminus should read biotin-LPET-GAMDPEF-; also called biotinylated LIN-42 CK1BD + Tail WT; wild-type LIN-42 protein; not shown: His-NusA, N-terminal, cleaved; biotin-LPETGG sortase peptide, N-terminal, …) GAMDPEFLSYTQINCLENVHRLLKSQSRPESPAKQDEPFDEKKYPPQTPLTREALTLHTKRFEDEYKDTWCRRLKRLSDDVPSSPPAKRTTPIHWTSSSQNHYRTMAPAPPPPPGKNYQITYTPLDDLTDQKSTNTKSDVENVAYPISGSKFSTPMRLSIDGLLPRGATSTGGASPTSGTNSPPVFPKTSSSSSLLMLRDSQN
